Residue numbers refer to the chain shown, from its start.
B1: 8H8F5: anti-human DVLR1/CLEC5A monoclonal antibody; VH SEQ ID NO: 64, VL SEQ ID NO: 65 (antibody, V domains shown)
VH: ESGRGLVQPGGSRKLSCAASGFTFSTSGMHWVRQAPEKGLEWVAYISSGSTTIYHADTVKGRFTISRDNPKNTLFLQMTSLRSEDTAMYYCARSGQFGNYFDYWGQGTTLTVSS
VL: MTQSPKFLLVSAGDRVTLTCKASQSVNNDVYWYQQEPGQSPKLLIYYASNRYTGVPDRFTGSGYGTDFTFTISTVQSEDLAVYFCQHDYSSPYTFGGGTKLEIKR
B2: 3E12A2: anti-human DVLR1/CLEC5A monoclonal antibody, subclone of 3E12; VH SEQ ID NO: 60, VL SEQ ID NO: 61 (antibody, V domains shown)
VH: QVQLEESGPELVKPGASVKLSCKASGYTFTEYIIHWVKQRSGQGLEWIGWFYPGSGSIKYNEKFKDKATLTADKSSSTVYMELSGLTSEDSAVYFCARHDGYSYFDYWGQGTTLTV
VL: QSPSSLAVSAGEKVTMSCKSSQSLLNSRTRKNYLAWYQQKPGQSPKLLIYWASTRESGVPDRFTGSGSGTDFTLTISSVQAEDLAVYYCKQSYNLYTFGGGTKLEIK
B3: 3E12G9: anti-human DVLR1/CLEC5A monoclonal antibody, subclone of 3E12; VH SEQ ID NO: 62, VL SEQ ID NO: 63 (antibody, V domains shown)
VH: B2 VH with E6Q
VL: B2 VL

Molecular target: T1, DVLR1/CLEC5A (Homo sapiens, UniProt Q9NY25)
T1 construct: endogenous in cells; host or cells: human CD14+ PBMC-derived macrophages (M-CSF, 6 days)
T1 sequence (Q9NY25 1-188): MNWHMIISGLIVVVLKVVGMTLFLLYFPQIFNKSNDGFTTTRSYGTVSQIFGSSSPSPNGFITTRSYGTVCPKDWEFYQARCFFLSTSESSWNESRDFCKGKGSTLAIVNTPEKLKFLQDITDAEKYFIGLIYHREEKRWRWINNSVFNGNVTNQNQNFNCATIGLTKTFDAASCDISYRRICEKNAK
Test: DV-induced TNF-α secretion from human macrophages with anti-DVLR1/CLEC5A mAbs
Assay type: cell-based
Conditions: for Antagonistic DV1 (suppression of DV-induced TNF-α secretion) / Antagonistic DV2 (suppression of DV-induced TNF-α secretion) / Antagonistic DV3 (suppression of DV-induced TNF-α secretion) / Antagonistic DV4 (suppression of DV-induced TNF-α secretion): antibody 10 μg/sample, p vs isotype control, m.o.i.=5, 36 h p.i.; for TNF-α release from macrophages after infection with DEN1, DEN2, DEN3 and DEN4: dose-dependent manner, ELISA of culture supernatants
Description: Monoclonal antibodies against DVLR1/CLEC5A were generated using standard techniques. Briefly, mice were immunized with DVLR-1.Fc fusion protein, and hybridomas were formed by fusing spienocytes from the mice with P3/NSI/1-Ag4-1 [NS-1] myeloma cells (ATCC TIB-18). Among the mAbs generated, clone 9B12, the subclones of 3E12 (clones 3E12A2, 3E12C1, 3E12G9), and clone 8H8F5 suppressed TNF-α release from macrophages after infection with DEN1 (strain 766733A), DEN2 (strain PL046), DEN3 (strain H-87), and DEN4 (strain 866146A) in a dose-dependent manner. […] In accordance with standard nomenclature, each antibody is referred to via the clone number of the hybridoma that secretes it.
According to embodiments illustrated in FIG. 19, DVLR1/CLEC5A is critical for DV-mediated TNF-α, but not IFN-α, secretion. More specifically, FIG. 19a illustrates the dose-dependency of DV and UV-DV induced TNF-α secretion by macrophages measured by ELISA at 6 h and 12 h p.i. FIG. 19b illustrates the kinetics of TNF-α expression after DV infection (m.o.i.=5). FIG. 19c illustrates the effects of DVLR1/CLEC5A and DC-SIGN shRNAs on the secretion of TNF-α, IL-6, MIP1-α, IL-8, IP-10, and IFN-α from DV-infected macrophages (m.o.i.=5). In FIG. 19d, knockdown experiments with receptor specific shRNAs illustrating that DV-induced IFN-α secretion is via the TLR7-MyD88 pathway and TNF-α secretion is via DVLR1/CLEC5A-TLR7-MyD88 pathway. FIG. 19e illustrates antagonistic anti-DVLR1/CLEC5A mAbs inhibiting TNF-α secretion in response to DV serotypes 1-4 is inhibited (see Table 3).
M.R. mAb (anti-mannose receptor mAb; mIgG1) and murine IgM (mIgM) were used as negative controls. In both FIG. 19d and FIG. 19e, macrophages were infected with DV (m.o.i.=5) and harvested at 36 h p.i. for cytokine assays. Data are expressed as mean±s.d. of three independent experiments (using material from at least three different donors). Two-tailed, Student's t-tests were performed. “ND” represents not detected.

Row | Molecule | Antagonistic DV1 (suppression of DV-induced TNF-α secretion) | Antagonistic DV2 (suppression of DV-induced TNF-α secretion) | Antagonistic DV3 (suppression of DV-induced TNF-α secretion) | Antagonistic DV4 (suppression of DV-induced TNF-α secretion) | TNF-α release from macrophages after infection with DEN1, DEN2, DEN3 and DEN4
1 | B1 | * (“*” - p < 0.05) | *** (“***” - p < 0.001) | ** (“**” - p < 0.01) | * (“*” - p < 0.05) | suppressed
2 | B2 | ** (“**” - p < 0.01) | ** (“**” - p < 0.01) | ** (“**” - p < 0.01) | * (“*” - p < 0.05) | suppressed
3 | B3 |  | ** (“**” - p < 0.01) | ** (“**” - p < 0.01) |  | suppressed
